Paper PMC12329595, “Engineered bacteriophytochrome heterodimers for research and applications” (The Journal of Biological Chemistry, 2025)

Tests used:
[1] = target: T1, DrBphPRE (full-length DrBphP E306R/R310E) (Deinococcus radiodurans strain R1, UniProt Q9RZA4 1-755, E306R | R310E, biliverdin IXα covalently linked to a conserved cysteine (holoprotein)); experiment: SEC; HPLC, bioZen 1.8 μm SEC-3 column, 30 mM Tris/HCl, 150 mM NaCl, pH 8.0 with 10% acetonitrile, 25 °C; full-length DrBphP and DrF1 variants and mixtures; details: both partners purified
T1 construct: Deinococcus radiodurans strain R1 bacteriophytochrome DrBphP, full length; source: E. coli BL21 (DE3), purified (Ni-NTA, SEC)
T1 sequence: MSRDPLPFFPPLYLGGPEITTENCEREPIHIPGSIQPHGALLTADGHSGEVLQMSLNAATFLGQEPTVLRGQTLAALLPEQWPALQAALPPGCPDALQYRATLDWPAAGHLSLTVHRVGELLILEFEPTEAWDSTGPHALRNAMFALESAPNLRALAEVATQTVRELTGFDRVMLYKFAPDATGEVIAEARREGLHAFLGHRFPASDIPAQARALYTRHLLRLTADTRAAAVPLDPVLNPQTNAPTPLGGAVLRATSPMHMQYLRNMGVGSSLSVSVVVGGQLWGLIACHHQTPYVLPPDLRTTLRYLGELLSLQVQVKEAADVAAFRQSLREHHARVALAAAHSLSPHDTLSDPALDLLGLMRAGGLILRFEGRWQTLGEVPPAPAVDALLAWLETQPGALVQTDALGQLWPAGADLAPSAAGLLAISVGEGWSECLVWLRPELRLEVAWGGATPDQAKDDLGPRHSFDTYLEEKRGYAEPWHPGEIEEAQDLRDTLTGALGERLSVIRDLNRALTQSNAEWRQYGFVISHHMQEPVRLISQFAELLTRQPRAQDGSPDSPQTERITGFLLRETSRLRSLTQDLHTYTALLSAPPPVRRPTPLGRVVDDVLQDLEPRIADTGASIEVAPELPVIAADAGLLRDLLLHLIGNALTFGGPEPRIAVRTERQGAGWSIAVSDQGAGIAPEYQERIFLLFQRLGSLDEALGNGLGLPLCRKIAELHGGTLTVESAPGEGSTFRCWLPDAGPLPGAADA

[2] = target: the molecule itself; experiment: as above

B1: DrBphPER (full-length DrBphP R141E/E148R) (natural protein)
chain: MSRDPLPFFPPLYLGGPEITTENCEREPIHIPGSIQPHGALLTADGHSGEVLQMSLNAATFLGQEPTVLRGQTLAALLPEQWPALQAALPPGCPDALQYRATLDWPAAGHLSLTVHRVGELLILEFEPTEAWDSTGPHALENAMFALRSAPNLRALAEVATQTVRELTGFDRVMLYKFAPDATGEVIAEARREGLHAFLGHRFPASDIPAQARALYTRHLLRLTADTRAAAVPLDPVLNPQTNAPTPLGGAVLRATSPMHMQYLRNMGVGSSLSVSVVVGGQLWGLIACHHQTPYVLPPDLRTTLEYLGRLLSLQVQVKEAADVAAFRQSLREHHARVALAAAHSLSPHDTLSDPALDLLGLMRAGGLILRFEGRWQTLGEVPPAPAVDALLAWLETQPGALVQTDALGQLWPAGADLAPSAAGLLAISVGEGWSECLVWLRPELRLEVAWGGATPDQAKDDLGPRHSFDTYLEEKRGYAEPWHPGEIEEAQDLRDTLTGALGERLSVIRDLNRALTQSNAEWRQYGFVISHHMQEPVRLISQFAELLTRQPRAQDGSPDSPQTERITGFLLRETSRLRSLTQDLHTYTALLSAPPPVRRPTPLGRVVDDVLQDLEPRIADTGASIEVAPELPVIAADAGLLRDLLLHLIGNALTFGGPEPRIAVRTERQGAGWSIAVSDQGAGIAPEYQERIFLLFQRLGSLDEALGNGLGLPLCRKIAELHGGTLTVESAPGEGSTFRCWLPDAGPLPGAADA
modifications: biliverdin IXα covalently linked to a conserved cysteine (holoprotein)
notes: Deinococcus radiodurans strain R1 bacteriophytochrome DrBphP, full length; source: E. coli BL21 (DE3), purified (Ni-NTA, SEC)
[1]
  binding result: binds
[2]
  binding result: binds
